Test results taken from the supplement of paper PMC7125110.
± gives the standard error. For some assays here: Fewer inactive variants are shown than the library holds.

B1: glmS ribozyme (parent)
chain: AUAAAAGCGCCAGAACUACAGAAAUGUAGUUGACGAGGAGGAGGUUUAUCGAAUUUUCGGCGGAUGCCUCCAAA

Assays:
Conditions in all cases: with glucosamine-6-phosphate
glucosamine-6-phosphate [1] = variants of: B1; test: kcat; higher = faster cleavage; RNA array
Method in brief: (§1)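 Barcoded glmS ribozyme variants on sequenced MiSeq chips were transcribed in situ by E. coli RNA polymerase and tracked through a hybridised Cy3 probe at 37 °C. Glucosamine-6-phosphate (40 μM to 10 mM) in HEPES/KCl/Mg(OAc)2 buffer was flowed in, and tiles were imaged over ~14 h. Signals were normalised to baseline and to non-cleaving reference variants; per-tile medians were fit to one- or two-exponential decays to give kobs. kcat and KM came from weighted Michaelis–Menten fits across concentrations.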

glucosamine-6-phosphate [2] = variants of: B1; test: KM; higher = weaker cofactor use; RNA array
Method in brief: as §1

glucosamine-6-phosphate [3] = variants of: B1; test: self-cleavage kobs at 40 uM GlcN6P; higher = faster cleavage; RNA array
Method in brief: as §1

glucosamine-6-phosphate [4] = variants of: B1; test: self-cleavage kobs at 160 uM GlcN6P; higher = faster cleavage; RNA array
Method in brief: as §1

glucosamine-6-phosphate [5] = variants of: B1; test: self-cleavage kobs at 640 uM GlcN6P; higher = faster cleavage; RNA array
Method in brief: as §1

glucosamine-6-phosphate [6] = variants of: B1; test: self-cleavage kobs at 2500 uM GlcN6P; higher = faster cleavage; RNA array
Method in brief: as §1

glucosamine-6-phosphate [7] = variants of: B1; test: self-cleavage kobs at 10000 uM GlcN6P; higher = faster cleavage; RNA array
Method in brief: as §1

## C11U A53G
glucosamine-6-phosphate [1]
  kcat: 0.00166 ± 9.2e-05 s⁻¹
glucosamine-6-phosphate [2]
  KM: 1400 ± 120 µM
glucosamine-6-phosphate [3]
  self-cleavage kobs at 40 uM GlcN6P: 5.07e-05 ± 5.9e-06 s⁻¹
glucosamine-6-phosphate [4]
  self-cleavage kobs at 160 uM GlcN6P: 0.000156 ± 2e-05 s⁻¹
glucosamine-6-phosphate [5]
  self-cleavage kobs at 640 uM GlcN6P: 0.000513 ± 4.2e-05 s⁻¹
glucosamine-6-phosphate [6]
  self-cleavage kobs at 2500 uM GlcN6P: 0.00111 ± 0.00013 s⁻¹
glucosamine-6-phosphate [7]
  self-cleavage kobs at 10000 uM GlcN6P: 0.00145 ± 0.00012 s⁻¹

## C11G A14U C70A
glucosamine-6-phosphate [1]
  kcat: 3.61e-05 ± 1.3e-05 s⁻¹

## A12C A64G
glucosamine-6-phosphate [1]
  kcat: 0.000378 ± 6.7e-05 s⁻¹
glucosamine-6-phosphate [2]
  KM: 1600 ± 500 µM
glucosamine-6-phosphate [5]
  self-cleavage kobs at 640 uM GlcN6P: 0.000111 ± 1.5e-05 s⁻¹
glucosamine-6-phosphate [6]
  self-cleavage kobs at 2500 uM GlcN6P: 0.000209 ± 3.2e-05 s⁻¹
glucosamine-6-phosphate [7]
  self-cleavage kobs at 10000 uM GlcN6P: 0.000415 ± 0.0001 s⁻¹

## C11U A14U C16G
glucosamine-6-phosphate [1]
  kcat: 0.000375 ± 7.9e-05 s⁻¹
glucosamine-6-phosphate [6]
  self-cleavage kobs at 2500 uM GlcN6P: 6.42e-05 ± 2.5e-05 s⁻¹
glucosamine-6-phosphate [7]
  self-cleavage kobs at 10000 uM GlcN6P: 0.000164 ± 3.4e-05 s⁻¹

## C10U C70G
glucosamine-6-phosphate [1]
  kcat: 2.35e-05 ± 4.9e-06 s⁻¹
glucosamine-6-phosphate [6]
  self-cleavage kobs at 2500 uM GlcN6P: 2.76e-05 ± 1.3e-05 s⁻¹

## C10U C70U
glucosamine-6-phosphate [1]
  kcat: 2.53e-05 ± 1.3e-06 s⁻¹
glucosamine-6-phosphate [2]
  KM: 777 ± 240 µM
glucosamine-6-phosphate [6]
  self-cleavage kobs at 2500 uM GlcN6P: 1.83e-05 ± 8e-06 s⁻¹
glucosamine-6-phosphate [7]
  self-cleavage kobs at 10000 uM GlcN6P: 2.38e-05 ± 7e-06 s⁻¹

## A12C C71G
glucosamine-6-phosphate [1]
  kcat: 0.000645 ± 0.00023 s⁻¹
glucosamine-6-phosphate [3]
  self-cleavage kobs at 40 uM GlcN6P: 4.39e-05 ± 8.5e-06 s⁻¹
glucosamine-6-phosphate [4]
  self-cleavage kobs at 160 uM GlcN6P: 0.000153 ± 2.4e-05 s⁻¹
glucosamine-6-phosphate [5]
  self-cleavage kobs at 640 uM GlcN6P: 0.000264 ± 3e-05 s⁻¹
glucosamine-6-phosphate [6]
  self-cleavage kobs at 2500 uM GlcN6P: 0.000424 ± 7.3e-05 s⁻¹
glucosamine-6-phosphate [7]
  self-cleavage kobs at 10000 uM GlcN6P: 0.00109 ± 0.00015 s⁻¹

## A12C C71U
glucosamine-6-phosphate [1]
  kcat: 0.0215 ± 0.0089 s⁻¹
glucosamine-6-phosphate [3]
  self-cleavage kobs at 40 uM GlcN6P: 0.000587 ± 7e-05 s⁻¹
glucosamine-6-phosphate [4]
  self-cleavage kobs at 160 uM GlcN6P: 0.00112 ± 0.00015 s⁻¹
glucosamine-6-phosphate [5]
  self-cleavage kobs at 640 uM GlcN6P: 0.00448 ± 0.00062 s⁻¹
glucosamine-6-phosphate [6]
  self-cleavage kobs at 2500 uM GlcN6P: 0.0206 ± 0.0035 s⁻¹
glucosamine-6-phosphate [7]
  self-cleavage kobs at 10000 uM GlcN6P: 0.0164 ± 0.0023 s⁻¹

## C10A G59A C68G U69C
glucosamine-6-phosphate [1]
  kcat: 3.77e-05 ± 1.1e-05 s⁻¹

## G9U G59A
glucosamine-6-phosphate [1]
  kcat: < 1e-05 s⁻¹
glucosamine-6-phosphate [3]
  self-cleavage kobs at 40 uM GlcN6P: < 1e-05 s⁻¹
glucosamine-6-phosphate [6]
  self-cleavage kobs at 2500 uM GlcN6P: < 1e-05 s⁻¹

## C11A G32A
glucosamine-6-phosphate [1]
  kcat: 1.09e-05 ± 7.8e-07 s⁻¹

## C11A U54A
glucosamine-6-phosphate [1]
  kcat: 0.000163 ± 1.3e-05 s⁻¹
glucosamine-6-phosphate [2]
  KM: 1490 ± 400 µM
glucosamine-6-phosphate [5]
  self-cleavage kobs at 640 uM GlcN6P: 5.49e-05 ± 1.4e-05 s⁻¹
glucosamine-6-phosphate [6]
  self-cleavage kobs at 2500 uM GlcN6P: 9.05e-05 ± 1.9e-05 s⁻¹
glucosamine-6-phosphate [7]
  self-cleavage kobs at 10000 uM GlcN6P: 0.000145 ± 1.4e-05 s⁻¹

## C11U A36C
glucosamine-6-phosphate [1]
  kcat: < 1e-05 s⁻¹
glucosamine-6-phosphate [3]
  self-cleavage kobs at 40 uM GlcN6P: < 1e-05 s⁻¹
glucosamine-6-phosphate [4]
  self-cleavage kobs at 160 uM GlcN6P: < 1e-05 s⁻¹
glucosamine-6-phosphate [7]
  self-cleavage kobs at 10000 uM GlcN6P: < 1e-05 s⁻¹

## C11U C61U
glucosamine-6-phosphate [1]
  kcat: < 1e-05 s⁻¹
glucosamine-6-phosphate [2]
  KM: 122 ± 8.2 µM
glucosamine-6-phosphate [3]
  self-cleavage kobs at 40 uM GlcN6P: < 1e-05 s⁻¹
glucosamine-6-phosphate [5]
  self-cleavage kobs at 640 uM GlcN6P: < 1e-05 s⁻¹
glucosamine-6-phosphate [7]
  self-cleavage kobs at 10000 uM GlcN6P: < 1e-05 s⁻¹

## C11U A39U
glucosamine-6-phosphate [1]
  kcat: 0.00145 ± 0.00027 s⁻¹
glucosamine-6-phosphate [2]
  KM: 3780 ± 1200 µM
glucosamine-6-phosphate [4]
  self-cleavage kobs at 160 uM GlcN6P: 4.38e-05 ± 1.1e-05 s⁻¹
glucosamine-6-phosphate [5]
  self-cleavage kobs at 640 uM GlcN6P: 0.000277 ± 4.8e-05 s⁻¹
glucosamine-6-phosphate [6]
  self-cleavage kobs at 2500 uM GlcN6P: 0.000641 ± 0.00011 s⁻¹
glucosamine-6-phosphate [7]
  self-cleavage kobs at 10000 uM GlcN6P: 0.00102 ± 0.00011 s⁻¹

## C11U A39C
glucosamine-6-phosphate [1]
  kcat: 0.000759 ± 0.00011 s⁻¹
glucosamine-6-phosphate [2]
  KM: 4650 ± 1100 µM
glucosamine-6-phosphate [5]
  self-cleavage kobs at 640 uM GlcN6P: 8.75e-05 ± 1.3e-05 s⁻¹
glucosamine-6-phosphate [6]
  self-cleavage kobs at 2500 uM GlcN6P: 0.000299 ± 5e-05 s⁻¹
glucosamine-6-phosphate [7]
  self-cleavage kobs at 10000 uM GlcN6P: 0.00051 ± 5.5e-05 s⁻¹

## C11A U30A C50U
glucosamine-6-phosphate [1]
  kcat: 2.21e-05 ± 3.2e-06 s⁻¹

## C10A C71A
glucosamine-6-phosphate [1]
  kcat: 1.51e-05 ± 2.9e-06 s⁻¹

## C10A C71G
glucosamine-6-phosphate [1]
  kcat: 3.78e-05 ± 1.3e-05 s⁻¹
glucosamine-6-phosphate [5]
  self-cleavage kobs at 640 uM GlcN6P: 5.99e-05 ± 2e-05 s⁻¹
